Laboratory results: the supplement of paper PMC9170038

Tested on: MS2 coat protein
Assay: apparent KD of MS2 coat protein; designed switch direction (-1 OFF switch, 1 ON switch): -1; higher = weaker reporter binding
Method in brief: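 RNA switches sharing common flanks were transcribed by stalled E. coli RNA polymerase on Illumina chips. A doubling series of SNAP-549-labelled MS2 coat protein, from 0.7 or 1.5 nM to 3 µM, was applied in Tris-HCl pH 7.5 buffer with KCl, MgCl2, BSA, DTT, tRNA and Tween-20. Each step lasted 0.8–1.5 h at the bottom of the series and 10–20 min at the top. Normalised cluster fluorescence was curve-fitted, giving apparent KD as the per-design median over clusters.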

[1] = Eterna round: R95, input ligand: FMN 200 uM
[2] = Eterna round: R95, input ligand: microRNA oligo, concentration not stated
[3] = Eterna round: R95, input ligand: none

Sequence: GAAUAUAAGCAAAGAUCCUACAUGAGGAUCACCCAUGUGCUCGUCUUAUAAAGUACUAUCACGAAAGUGAUAGUACA [Mat - Sensor v3 - turn-off var 1 - Eli Mod - D82] (puzzle: Sensor v3, turn-off variant 1)
- apparent KD of MS2 coat protein [1]: 0.0899 µM
- apparent KD of MS2 coat protein [2]: 0.0251 µM
- apparent KD of MS2 coat protein [3]: 0.135 µM

Sequence: GAAUGAGAGCAGGAUAUCUUAAAAAUGUAUAAAAGAGAAGGGCUCACAUGAGGAUCACCCAUGUGGUCCUAGAU [jl-ex6-4.69 jandersonlee mod] (Eterna round: R97, puzzle: Exclusion 6)
- apparent KD of MS2 coat protein (input ligand: FMN 200 uM): 0.572 µM
- apparent KD of MS2 coat protein (input ligand: none): 0.0405 µM

Sequence: GAAUGAGAGCAGGAUAUCUUAUAAAUGUAUGAAAGAGAAGGGCUCACAUGAGGAUCACCCAUGUGGUCCUAGAU [jl-ex6-4.76 jandersonlee mod] (Eterna round: R97, puzzle: Exclusion 6)
- apparent KD of MS2 coat protein (input ligand: FMN 200 uM): 0.645 µM
- apparent KD of MS2 coat protein (input ligand: none): 0.0352 µM

Sequence: GACAAAGGAGGAUAUACAAUGUCCUGGUCUAACCCGAUGGCACAUGAGGAUCACCCAUGUAGAAGGCCUUUGCG [Eternabot (L1) Solution 4] (Eterna round: R97, puzzle: Exclusion 2)
- apparent KD of MS2 coat protein (input ligand: FMN 200 uM): 0.039 µM
- apparent KD of MS2 coat protein (input ligand: none): 0.0176 µM

Sequence: GACAAGGGAGGAUAUGCACAAGGGAUAUCUGACAUGCCGAUACAUGAGGAUCACCCAUGUAGAAGGCCCGAAUA [Oneser] (puzzle: Exclusion 2)
- apparent KD of MS2 coat protein [2]: 0.0125 µM

Sequence: GACAGGGCAGGAUAUCGAAUUCCUCACAUGAGGAUCACCCAUGUUCAGUCGAAAGACUGACGAGAAGGGCCGUGUC [Omei Ex5 E1] (Eterna round: R97, puzzle: Exclusion 5)
- apparent KD of MS2 coat protein (input ligand: FMN 200 uM): 1.02 µM
- apparent KD of MS2 coat protein (input ligand: none): 2.29 µM

Sequence: GACAGGGCAGGAUAUCGAGAUCCGCACAUGAGGAUCACCCAUGUUCGGUCGAAAGACCGACGAGAAGGGCCGUGUC [Omei Ex5 E5] (Eterna round: R97, puzzle: Exclusion 5)
- apparent KD of MS2 coat protein (input ligand: FMN 200 uM): 0.651 µM
- apparent KD of MS2 coat protein (input ligand: none): 0.869 µM

Sequence: GACCCACAUGAGGAUCACCCAUGUCAGGAUAUGCAGUUGGAUGCGUCAGAUUUCCAUAGCAGAAGGGAUCUGGC [Eternabot (Original) Solution 14] (Eterna round: R97, puzzle: Exclusion 1)
- apparent KD of MS2 coat protein (input ligand: FMN 200 uM): 0.0165 µM
- apparent KD of MS2 coat protein (input ligand: none): 0.0182 µM

Sequence: GACGCUAAAGGAUAUACAUGAGGAUCACCCAUGUUGAGGAAGGUUAGAUGAGGAGUAAGUAGAAGGUUAGGCGA [JR_Exclu3_Sub092] (puzzle: Exclusion 3)
- apparent KD of MS2 coat protein [2]: 0.0336 µM

Sequence: GACUAGGGAGGAUAUAUUUACAGUGUACCUCGGGUGAUCGCACUUGAGGAUCACCCAAGUAGAAGGCUCGAGGG [EX2 #27] (Eterna round: R97, puzzle: Exclusion 2)
- apparent KD of MS2 coat protein (input ligand: FMN 200 uM): 0.03 µM
- apparent KD of MS2 coat protein (input ligand: none): 0.0359 µM

Sequence: GACUAGUGAGGAUAUACUUGCAGUGUACCUCGGGUGAUCUCACUUGAGGAUCACCCAAGUAGAAGGCGCGAGGG [EX2 #23] (Eterna round: R97, puzzle: Exclusion 2)
- apparent KD of MS2 coat protein (input ligand: FMN 200 uM): 0.0131 µM
- apparent KD of MS2 coat protein (input ligand: none): 0.0183 µM

Sequence: GACUAUUCGUAGGAUAUACUACUUAGCUAUGGAGUAGAAGGACGAACAUGAGGAUCACCCAUGUGGGACCCGGG [Eternabot (L2) Solution 31] (Eterna round: R97, puzzle: Exclusion 6)
- apparent KD of MS2 coat protein (input ligand: FMN 200 uM): 0.125 µM
- apparent KD of MS2 coat protein (input ligand: none): 0.0812 µM

Sequence: GACUGCUGAGGAUAUACAUGAGGAUCACCCAUGUGCUUCAGUAUCGAAAGAUGCAUGGGUAGAAGGUGGUAGUC [LRO-Excl3-09] (puzzle: Exclusion 3)
- apparent KD of MS2 coat protein [2]: 0.0801 µM

Sequence: GAGAAACAUGAGGAUCACCCAUGUGAGGAUAUGUGAGACUAAAGCGCGCAGGCUAAGGACAGAAGGCACAAGGA [Excls1-Ia] (puzzle: Exclusion 1)
- apparent KD of MS2 coat protein [1]: 0.0575 µM
- apparent KD of MS2 coat protein [2]: 0.0426 µM
- apparent KD of MS2 coat protein [3]: 0.053 µM

Sequence: GAGAAAGCAAGCAAGUGAAACAUGAGGAUCACCCAUGUCCUCAUUUGCUCGUCUUAUAAAAGCUAUCGAAAGAUAGC [Mat - Sensor v3 - turn-off var 1 - Eli Mod - D48] (puzzle: Sensor v3, turn-off variant 1)
- apparent KD of MS2 coat protein [1]: 0.0132 µM
- apparent KD of MS2 coat protein [2]: 0.139 µM
- apparent KD of MS2 coat protein [3]: 0.0103 µM

Sequence: GAGAAGGUAGGAUAUACGAAGAAAGAGGGUAGUAAUAAUACACAUGAGGAUCACCCAUGUAGAAGGACCAAGAG [Mat - Exclusion 2 - Mod of my Tesla design - D45] (puzzle: Exclusion 2)
- apparent KD of MS2 coat protein [1]: 0.0359 µM
- apparent KD of MS2 coat protein [2]: 0.0247 µM
- apparent KD of MS2 coat protein [3]: 0.0217 µM

Sequence: GAGAAGGUAGGAUAUACGAAUAAAUAGGGUAGGAAGAAGACACAUGAGGAUCACCCAUGUAGAAGGACCAAGAU [Mat - Exclusion 2 - Mod of my Tesla design - D35] (puzzle: Exclusion 2)
- apparent KD of MS2 coat protein [2]: 0.0181 µM

Sequence: GAGAGGUCAGGAUAUACGGAGAGAGGGAGUUGGUGAGGGUAACAUGAGGAUCACCCAUGUAGAAGGGACUAAGG [JR_Exclu2_Sub077] (puzzle: Exclusion 2)
- apparent KD of MS2 coat protein [2]: 0.0228 µM

Sequence: GAGCCACAUGAGGAUCACCCAUGUGAGGAUAUCAUGCUUCGUAGUAAACUACGAAGUGUGAGAAGGCACAAUGG [Omei Ex1 C5] (Eterna round: R97, puzzle: Exclusion 1)
- apparent KD of MS2 coat protein (input ligand: FMN 200 uM): 0.233 µM
- apparent KD of MS2 coat protein (input ligand: none): 0.0997 µM

Sequence: GAGCCUAAUGUAGGAUAUCGAGGUCGGUGACGUCGAGAAGGACAUGAGGAUCACCCAUGUCGUAGCGGCGGGAACGCUGCUACG [first try -36 kcal] (Eterna round: R96, puzzle: Exclusion NG 1)
- apparent KD of MS2 coat protein (input ligand: FMN 200 uM): 0.0829 µM
- apparent KD of MS2 coat protein (input ligand: microRNA oligo, concentration not stated): 0.147 µM
- apparent KD of MS2 coat protein (input ligand: none): 0.274 µM

Sequence: GAGCUAUGAGGAUAUGCAUAGAUACGGAUUCGUGUAGUACUACAUGAGGAUCACCCAUGUAGAAGGCGUGGCAG [Mat - Exclusion 2 - Mod of JL - D76] (puzzle: Exclusion 2)
- apparent KD of MS2 coat protein [2]: 0.0139 µM

Sequence: GAGGAACAUGAGGAUCACCCAUGUGAGGAUAUGCAUAGUGAGGUAGUAGACGUUUAUUGCAGAAGGUACACUGA [JR_Exclu1_Sub079] (puzzle: Exclusion 1)
- apparent KD of MS2 coat protein [2]: 0.0256 µM

Sequence: GAGGAGCAAGGAUAUACGAGGAUAGGGAAGUGAGGAGAGUGACAUGAGGAUCACCCAUGUAGAAGGUGCAAGGG [JR_Exclu2_Sub094] (puzzle: Exclusion 2)
- apparent KD of MS2 coat protein [1]: 0.111 µM
- apparent KD of MS2 coat protein [2]: 0.0894 µM
- apparent KD of MS2 coat protein [3]: 0.19 µM

Sequence: GAGGAUAGAGGAUAUGCAUAGAUACGGAUUCGUGUAGUACUACAUGAGGAUCACCCAUGUAGAAGGCUGUCCUG [JL-ex2-2.01 mat747 mod] (puzzle: Exclusion 2)
- apparent KD of MS2 coat protein [2]: 0.0129 µM

Sequence: GAGGCAUGCUGAGGUCCACACAUGAGGAUCACCCAUGUAAUGACAAGCUUUUUACUCAUCUUAUCGCUAUCGCGUUC [Tiinarre] (puzzle: Sensor v3, turn-off variant 1)
- apparent KD of MS2 coat protein [1]: 0.0192 µM
- apparent KD of MS2 coat protein [2]: 0.0666 µM
- apparent KD of MS2 coat protein [3]: 0.0163 µM

Sequence: GAGGCCAUAGGAUAUCUGUUACGGGACAUGAGGAUCACCCAUGUACUGGCAAGUCCUCGGAGAGAAGGAUGACUCU [Eternabot (L1) Solution 68] (Eterna round: R97, puzzle: Exclusion 5)
- apparent KD of MS2 coat protein (input ligand: FMN 200 uM): 0.0219 µM
- apparent KD of MS2 coat protein (input ligand: none): 0.0183 µM

Sequence: GAGGUGUAAGGAUAUAGCUAUAGGCUAACCGGGACCCAUAGCUAGAAGGUACAUGAGGAUCACCCAUGUUUGCU [Eternabot (L1) Solution 99] (Eterna round: R97, puzzle: Exclusion 4)
- apparent KD of MS2 coat protein (input ligand: FMN 200 uM): 0.0349 µM
- apparent KD of MS2 coat protein (input ligand: none): 0.0226 µM
